Measurements from US20240076412A1 (NATIONAL INSTITUTE OF BIOLOGICAL SCIENCES BEIJING, published 2024).
Like-named read-outs stand apart in the source and are kept apart here.

Columns and labels:
[1] = target: T1, mFcγRI; experiment: SPR (Biacore T200), antibody captured on the chip, serially diluted mFcγRI as analyte; concentrations not given
T1 construct: Named singly only on the sheet; the text speaks of mFcγRs as a group; also called mouse Fcγ receptor I; one of the mFcγRs
T1 chain: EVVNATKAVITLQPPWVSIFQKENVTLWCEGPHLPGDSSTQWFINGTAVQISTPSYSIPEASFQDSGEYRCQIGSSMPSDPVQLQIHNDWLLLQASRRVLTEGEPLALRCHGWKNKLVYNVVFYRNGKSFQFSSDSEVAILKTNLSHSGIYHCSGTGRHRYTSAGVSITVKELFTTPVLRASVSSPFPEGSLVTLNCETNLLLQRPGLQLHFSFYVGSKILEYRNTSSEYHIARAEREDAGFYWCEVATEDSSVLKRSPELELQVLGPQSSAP

[2] = target: T2, hGPC3-ΔHS (human, UniProt P51654 25-559, limits assumed); experiment: SPR, antibody captured by anti-human Fc antibodies on CM5 chip, hGPC3 injected first, then hCD47
T2 construct: also called hGPC3-ΔHS protein

[3] = target: T3, extracellular domain of human CD47 (CD47-ECD), residues 1-118, with His6 tag and Avi tag (human, UniProt Q08722 19-136, biotin modification at the C-terminus (Avi tag, BirA) in the form called CD47-Bio); experiment: SPR (Biacore T200), IgG1 captured on CM5 chip, CD47 as analyte; the column head also prints x 10^6, not applied because kd/ka of the cells gives the KD cell in M [Con't]
T3 construct: also called CD47-ECD-His6; CD47-Bio; not shown: His6 tag and Avi tag from the vector

[4] = target: T3, extracellular domain of human CD47 …; experiment: CD47 binding ELISA, bio-CD47 captured on neutravidin, full-length IgG1
Procedure: (§1) CD47 binding ELISA: 2 μg/mL of neutravidin (Sigma) in phosphate buffered saline (PBS) was coated in U-bottom 96-well plate (Nunc, MaxiSorp™), 100 μL per well, at 4° C. overnight or 37° C. for 1 hour. 2 μg/mL of bio-CD47 in PBS containing 2% nonfat milk were then captured onto the plates at 100 μL per well by incubation at 30° C. for 1 hour. […] In between each incubation step, the ELISA plate was washed for 6 times with PBST solution (0.05% Tween20 containing PBS) at 200 μL per well. Followed by HRP-conjugated antibody incubation, the ELISA signal was developed by incubating with TMB substrate (Sigma) for 5-10 mins at 30° C. and then stop the reaction with 2M H₂SO₄ at 50 μL per well. The absorbance at 450 nm was read by a microplate reader (Bio-Rad). For scFv-Fc or IgG1 based ELISA, the method was basically the same as described above for phage-scFvs except the bound antibodies were detected by HRP-conjugated mouse anti-human IgG Fc antibody (Sigma).
(§2) In FIG. 3, A. Antibodies in the form of full-length IgG1 were 3-fold serial diluted (starting at 10 nM, 12 concentrations total). B. Antibodies in the form of full-length IgG1 were 3-fold serial diluted (starting at 40 nM, 12 concentrations total).

[5] = target: T3, extracellular domain of human CD47 …; experiment: as above; remark: listed apart in the source
Procedure: as §1, §2

[6] = target: T3, extracellular domain of human CD47 …; experiment: SPR (Biacore T200), IgG1 captured on CM5 chip, CD47 as analyte [Con't]
Procedure: SPR was performed on a Biacore T200. 1 μg/mL of anti-CD47 full length IgG1 antibodies were captured onto a CM5 chip for 30 s at 10 μl/min. CD47 in 2-fold serial dilutions (starting at 100 nmol, seven concentrations total) were injected over the antibody-bound surface for 120 s at 30 μl/min followed by a 240 s dissociation phase. After each cycle, the surface was regenerated with magnesium chloride.

[7] = target: T4, hCD47 protein (SPR analyte of Example 2) (human, UniProt Q08722 19-139, limits assumed); experiment: SPR (Biacore T200), IgG1 captured on protein A/G CM5 chip, human CD47 as analyte
Procedure: (§3) All SPR analyses were performed on a Biacore T200 instrument (Biacore, GE Healthcare). […] The association rates (Kₒₙ), dissociation rates (Koff), and affinity constants (KD) were calculated using BiacoreT200 evaluation software.

[8] = target: T3, extracellular domain of human CD47 …; experiment: SPR (Biacore T200), IgG1 captured on CM5 chip, CD47 as analyte; the column head prints KD (nM), but the cell equals kd/ka in M [Con't]
Procedure: (§4) 1 μg/mL of anti-CD47 full length IgG1 antibodies were captured onto a CM5 chip for 30 s at 10 μl/min. CD47 in 2-fold serial dilutions (starting at 100 nmol, seven concentrations total) were injected over the antibody-bound surface for 120 s at 30 μl/min followed by a 240 s dissociation phase. After each cycle, the surface was regenerated with magnesium chloride.

[9] = target: T3, extracellular domain of human CD47 …; experiment: SIRPα competition ELISA, CD47-ECD-His6 coated, competitor 0.5 nM biotinylated SIRPα-d1-mFc
Procedure: (§5) The wash, development and read steps are the same as hCD47 binding ELISA. The OD450 values were transformed to Inhibition % in data analysis.
(§6) B. Antibodies in the form of full-length IgG1 were 3-fold serial diluted (starting at 40 nM, 12 concentrations total).

[10] = target: T3, extracellular domain of human CD47 …; experiment: SIRPα competition ELISA, CD47-ECD-His6 coated, competitor 0.8 nM biotinylated SIRPα-d1-mFc
Procedure: as §5, §6

[11] = target: T3, extracellular domain of human CD47 …; experiment: SPR (Biacore T200), IgG1 captured on CM5 chip, CD47 as analyte; the column head also prints x 10^-3, not applied because kd/ka of the cells gives the KD cell in M [Con't]
Procedure: as §4

[12] = target: T4, hCD47 protein (SPR analyte of Example 2); experiment: SPR, antibody captured by anti-human Fc antibodies on CM5 chip, hGPC3 injected first, then hCD47
[13] = target: T2, hGPC3-ΔHS; experiment: SPR (Biacore T200), IgG1 captured on protein A/G CM5 chip, antigen printed as human GPC3 (hGPC3-ΔHS by paragraph 180) as analyte
Procedure: as §3

B1: GPC3/CD47-DANG (bispecific antibody)
heavy 1: QVQLVQSGAEVKKPGASVKVSCKASGYTFTDYEMHWVRQAPGQGLEWMGALDPKTGDTAYSQKFKGRVTLTADESTSTAYMELSSLRSEDTAVYYCTRFYSYTYWGQGTLVTVSSASTKGPSVFPLAPSSKSTSGGTAALGCLVKDYFPEPVTVSWNSGALTSGVHTFPAVLQSSGLYSLSSVVTVPSSSLGTQTYICNVNHKPSNTKVDKKAEPKSCDKTHTCPPCPAPELLGGPSVFLFPPKPKDTLMISRTPEVTCVVVAVSHEDPEVKFNWYVDGVEVHNAKTKPREEQYGSTYRVVSVLTVLHQDWLNGKEYKCKVSNKALPAPIEKTISKAKGQPREPQVYTLPPCRDELTKNQVSLWCLVKGFYPSDIAVEWESNGQPENNYKTTPPVLDSDGSFFLYSKLTVDKSRWQQGNVFSCSVMHEALHNHYTQKSLSLSPGK
light 1: DVVMTQSPLSLPVTPGEPASISCRSSQSLVHSNANTYLHWYLQKPGQSPQLLIYKVSNRFSGVPDRFSGSGSGTDFTLKISRVEAEDVGVYYCSQNTHVPPTFGQGTKLEIKRTVAAPSVFIFPPSDEQLKSGTASVVCLLNNFYPREAKVQWKVDNALQSGNSQESVTEQDSKDSTYSLSSTLTLSKADYEKHKVYACEVTHQGLSSPVTKSFNRGEC
heavy 2: QVQLQESGPGLVKPSETLSLTCTVSGDSINYHYWSWIRQPPGKGLEWIGYIYYSGSTTYNPSLKSRVTMSVDPSKNHFSLKLTSVTAADTALYFCARQRGAYDYWGQGTLVTVSSASVAAPSVFIFPPSDEQLKSGTASVVCLLNNFYPREAKVQWKVDNALQSGNSQESVTEQDSKDSTYSLSSTLTLSKADYEKHKVYACEVTHQGLSSPVTKSFNRGECDKTHTCPPCPAPELLGGPSVFLFPPKPKDTLMISRTPEVTCVVVAVSHEDPEVKFNWYVDGVEVHNAKTKPREEQYGSTYRVVSVLTVLHQDWLNGKEYKCKVSNKALPAPIEKTISKAKGQPREPQVCTLPPSRDELTKNQVSLSCAVKGFYPSDIAVEWESNGQPENNYKTTPPVLDSDGSFFLVSKLTVDKSRWQQGNVFSCSVMHEALHNHYTQKSLSLSPGK
light 2: DIQLTQSPSSVSASVGDRVTIACRASQDIGSRLVWYQQRPGKAPKLLIYAASSLQSGVPSRFSGSGSGTDFTLTISSLQPEDFATYYCQQSYSTPYSFGQGTKLEIKSSASTKGPSVFPLAPSSKSTSGGTAALGCLVKDYFPEPVTVSWNSGALTSGVHTFPAVLQSSGLYSLSSVVTVPSSSLGTQTYICNVNHKPSNTKVDKKAEPKSC
notes: also called GPC3/CD47 biAb Fc variant; GPC3/CD47-DANG variant
binding result [1]: no binding

B2: BC18 full-length human IgG1 (antibody, V domains shown)
VH: QVQLQQSGPGLVKPSETLSLTCTVSGDSINYHYWSWIRQPPGKGLEWIGYIYYSGSTTYNPSLKSRVTMSVDPSKNHFSLKLTSVTAADTALYFCARQRGAYDYWGQGTQVTVSS
VL: DIQLTQSPSSVSASVGDRVTIACRASQDIGSRLVWYQQRPGKAPKLLIYAASSLQSGVPSRFSGSGSGTDFTLTISSLQPEDFATYYCQQSYSTPYSFGQGTKLEIK
notes: also called anti-CD47 mAb; parental anti-CD47 mAb
binding result [2]: no binding | kon [3]: 557000 M⁻¹ s⁻¹ | EC50 (read off the curve) [4]: ~0.01 nM | EC50 (read off the curve) [5]: ~0.01 nM | Kd [6]: 1.62 nM | koff [6]: 0.00117 s⁻¹ | kon [6]: 721000 M⁻¹ s⁻¹ | Kd [7]: 1.11 nM | koff [7]: 0.000753 s⁻¹ | kon [7]: 679000 M⁻¹ s⁻¹ | Kd [8]: 2.22 nM | IC50 (read off the curve) [9]: ~3 nM | IC50 (read off the curve) [10]: ~3 nM | koff [11]: 0.00123 s⁻¹

B3: GC33 (Codrituzumab), human IgG1 (antibody, V domains shown)
VH: QVQLVQSGAEVKKPGASVKVSCKASGYTFTDYEMHWVRQAPGQGLEWMGALDPKTGDTAYSQKFKGRVTLTADESTSTAYMELSSLRSEDTAVYYCTRFYSYTYWGQGTLVTVSS
VL: DVVMTQSPLSLPVTPGEPASISCRSSQSLVHSNANTYLHWYLQKPGQSPQLLIYKVSNRFSGVPDRFSGSGSGTDFTLKISRVEAEDVGVYYCSQNTHVPPTFGQGTKLEIK
notes: also called anti-GPC3 mAb
binding result [12]: no binding | Kd [13]: 1.29 nM | koff [13]: 0.000275 s⁻¹ | kon [13]: 213000 M⁻¹ s⁻¹
